Assay results taken from the supplement of paper PMC7125110.
± gives the standard error. For some of these results: This sample holds only a part of the variants without activity.

B1: glmS ribozyme (parent)
chain: AUAAAAGCGCCAGAACUACAGAAAUGUAGUUGACGAGGAGGAGGUUUAUCGAAUUUUCGGCGGAUGCCUCCAAA

Columns and labels:
Details in all cases: with glucosamine-6-phosphate
glucosamine-6-phosphate [1] = variants of: B1; experiment: kcat; higher = faster cleavage; RNA array
In short: (§1)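 Weighted Michaelis–Menten fits across concentrations supplied kcat and KM, based on kobs from one- or two-exponential decay fits to normalised per-tile medians. The data came from barcoded ribozyme variants transcribed in situ by E. coli RNA polymerase on sequenced MiSeq chips and tracked at 37 °C by a hybridised Cy3 probe. Glucosamine-6-phosphate (40 μM to 10 mM) in HEPES/KCl/Mg(OAc)2 buffer was flowed in.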

glucosamine-6-phosphate [2] = variants of: B1; experiment: KM; higher = weaker cofactor use; RNA array
In short: as §1

glucosamine-6-phosphate [3] = variants of: B1; experiment: self-cleavage kobs at 40 uM GlcN6P; higher = faster cleavage; RNA array
In short: as §1

glucosamine-6-phosphate [4] = variants of: B1; experiment: self-cleavage kobs at 640 uM GlcN6P; higher = faster cleavage; RNA array
In short: as §1

glucosamine-6-phosphate [5] = variants of: B1; experiment: self-cleavage kobs at 2500 uM GlcN6P; higher = faster cleavage; RNA array
In short: as §1

glucosamine-6-phosphate [6] = variants of: B1; experiment: self-cleavage kobs at 10000 uM GlcN6P; higher = faster cleavage; RNA array
In short: as §1

glucosamine-6-phosphate [7] = variants of: B1; experiment: self-cleavage kobs at 160 uM GlcN6P; higher = faster cleavage; RNA array
In short: as §1

Row | Variant | kcat (glucosamine-6-phosphate [1]) [s⁻¹] | KM (glucosamine-6-phosphate [2]) [µM] | self-cleavage kobs at 40 uM GlcN6P (glucosamine-6-phosphate [3]) [s⁻¹] | self-cleavage kobs at 640 uM GlcN6P (glucosamine-6-phosphate [4]) [s⁻¹] | self-cleavage kobs at 2500 uM GlcN6P (glucosamine-6-phosphate [5]) [s⁻¹] | self-cleavage kobs at 10000 uM GlcN6P (glucosamine-6-phosphate [6]) [s⁻¹] | self-cleavage kobs at 160 uM GlcN6P (glucosamine-6-phosphate [7]) [s⁻¹]
1 | C8U G38A | < 1e-05 | 371 ± 120 | < 1e-05 | – | – | – | –
2 | U45A C67A C68G | 1.46e-05 ± 7.2e-06 | – | – | – | – | – | –
3 | A14G U46C | 0.0067 ± 0.0025 | – | 0.000504 ± 0.00011 | 0.00207 ± 0.00084 | 0.00744 ± 0.0013 | 0.00545 ± 0.002 | –
4 | A14G U46G | 0.0115 ± 0.0033 | 997 ± 360 | 0.000421 ± 7.1e-05 | 0.00524 ± 0.0017 | 0.0199 ± 0.0079 | 0.00927 ± 0.0027 | 0.00247 ± 0.001
5 | G43C C67G | 0.000698 ± 0.00015 | 2490 ± 1200 | – | 0.000186 ± 3.6e-05 | 0.000454 ± 0.0001 | 0.000541 ± 5.7e-05 | –
6 | U57G C58U C70U | 1.35e-05 ± 3.4e-06 | – | – | – | – | – | < 1e-05
7 | G29U A53G C67G | 0.000147 ± 2.6e-05 | – | 5.1e-05 ± 1.8e-05 | 0.000108 ± 1.9e-05 | 0.000139 ± 3.6e-05 | 0.000205 ± 4.9e-05 | 6.91e-05 ± 1.9e-05
8 | U31C G40U U47A | 0.000144 ± 4.5e-05 | – | – | – | 0.000154 ± 4.5e-05 | 0.000116 ± 2.2e-05 | –
9 | G13C G29A | 0.000136 ± 1.6e-05 | 3070 ± 910 | – | 3.33e-05 ± 1.2e-05 | 5.64e-05 ± 9.9e-06 | 0.000106 ± 1.2e-05 | –
10 | G29C A39G | 0.00594 ± 0.0022 | – | 0.000107 ± 1.2e-05 | 0.000768 ± 0.00012 | 0.00223 ± 0.00037 | 0.00525 ± 0.00064 | 0.000305 ± 6.8e-05
11 | A15G U56C | 0.0034 ± 0.0013 | – | 5.65e-05 ± 1.3e-05 | 0.000805 ± 0.00025 | 0.00116 ± 0.00021 | 0.00354 ± 0.0006 | 0.00017 ± 2.9e-05
12 | A12U C58A | 0.00172 ± 0.00051 | – | – | 5.11e-05 ± 1.2e-05 | 0.000149 ± 2.6e-05 | 0.00051 ± 6.1e-05 | –
13 | U57A G60U | < 1e-05 | – | < 1e-05 | < 1e-05 | – | < 1e-05 | < 1e-05
14 | U30G C58A | 0.000335 ± 5.6e-05 | 2550 ± 710 | – | 7.21e-05 ± 8.3e-06 | 0.000154 ± 1.8e-05 | 0.000293 ± 5e-05 | –
15 | C10U A36U | < 1e-05 | – | < 1e-05 | – | – | < 1e-05 | < 1e-05
16 | G37U C70G | 2.07e-05 ± 8.5e-06 | – | – | – | – | – | –
17 | A6C G29A | < 1e-05 | – | < 1e-05 | – | – | – | –
